Key:
APOBEC3A E72A/C171A = APOBEC3A E72A/C171A (human, UniProt P31941 1-199, E72A;C171A); assay: fluorescence anisotropy
APOBEC3A E72Q = APOBEC3A E72Q (human, UniProt P31941 1-199, E72Q); assay: fluorescence anisotropy
Chain of APOBEC3A E72Q (P31941 whole entry E72Q): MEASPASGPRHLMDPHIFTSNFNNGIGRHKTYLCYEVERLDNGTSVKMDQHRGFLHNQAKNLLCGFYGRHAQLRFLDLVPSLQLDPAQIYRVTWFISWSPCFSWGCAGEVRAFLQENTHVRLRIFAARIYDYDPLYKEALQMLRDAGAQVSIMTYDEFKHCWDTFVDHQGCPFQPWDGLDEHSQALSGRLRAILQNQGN

Chain of APOBEC3A E72A/C171A (P31941 whole entry E72A/C171A): as the sequence (P31941 whole entry E72Q) above, with Q72A, C171A counted along it

TTTTTTTTTTTTTTT (ssDNA) [polyT (TTT)]
Kd (APOBEC3A E72A/C171A): 502 ± 27 nM
Kd (APOBEC3A E72Q): 205 ± 20 nM

Reference: paper PMC4874493
